Tested on: MS2 coat protein
Assay: apparent KD of MS2 coat protein; higher = weaker reporter binding
Settings: Eterna round: R107
How it was run: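 Titration buffer: 100 mM Tris-HCl pH 7.5, 80 mM KCl, 4 mM MgCl2, without or with constant ligand. Designed RNA switches transcribed on-chip from Illumina sequencing clusters received SNAP-549-labelled MS2 coat protein in twofold steps from 0.7 or 1.5 nM to 3 µM. Apparent KD is the median per design of fits to normalised cluster binding curves.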

[1] = input ligand: theophylline 20 uM
[2] = input ligand: tryptophan 2.4 mM
[3] = input ligand: theophylline 2 mM

AGACAUGAGGAUCACCCAUGUAGCAUGGAUACCAGAUGUAGAUUUGUCCCUUGGCAGCUGUGGUAAAGUGAUGCAUUGCUCCUAG [Exclusion - Theophylline A (Freestyle 4)]
apparent KD of MS2 coat protein (input ligand: arginine 13.2 mM): 34.4 nM
apparent KD of MS2 coat protein [1]: 61.5 nM
apparent KD of MS2 coat protein [2]: 33.3 nM

AGACAUGAGGAUCACCCAUGUAGUACGGAUACCAGAUCCAGAUUUAUCCCUUGGCAGCUGUGGUACAGCGUUGCAACGCUCCUAG [Exclusion - Theophylline A (Freestyle 15)]
apparent KD of MS2 coat protein (input ligand: arginine 13.2 mM): 13.6 nM
apparent KD of MS2 coat protein [1]: 22.1 nM
apparent KD of MS2 coat protein [2]: 15.4 nM

AGACAUGUAAGAUAAUUGACUUUUACAGAUACCAGACUGUCUAAUGUCCCUUGGCAGCUGCAUUACAUGAGGAUCACCCAUGUUA [JR_ExcTheophyA_Sub011]
apparent KD of MS2 coat protein (input ligand: arginine 13.2 mM): 15.9 nM
apparent KD of MS2 coat protein [1]: 20.3 nM
apparent KD of MS2 coat protein [2]: 17.5 nM

AGACAUGUAGGAUAAUUGACUAUUACAGAUACCAGACUGUCUAAUGUCCCUUGGCAGCUGCAUUACAUGAGGAUCACCCAUGUUA [JR_ExcTheophyA_Sub012]
apparent KD of MS2 coat protein (input ligand: arginine 13.2 mM): 16.5 nM
apparent KD of MS2 coat protein [1]: 22.7 nM
apparent KD of MS2 coat protein [2]: 20.4 nM

AGACGAGAAGAGGUUUACCCAUGUACAGAAGGAGCGUCGUUGACGACAGGUAGGUCGCUGAAAACAUGAGGAUCACCCAUGUUGA [#05 Exclusion - Arginine A]
apparent KD of MS2 coat protein (input ligand: arginine 13.2 mM): 62.9 nM
apparent KD of MS2 coat protein (input ligand: none): 31.1 nM
apparent KD of MS2 coat protein [1]: 35.3 nM
apparent KD of MS2 coat protein [3]: 39.7 nM
apparent KD of MS2 coat protein [2]: 31.7 nM

AGAGGUGCAACAGAUACCAGUCUACCGUACCUCAGAGAACAUGAGGAUCACCCAUGUAUAGACCCUUGGCAGCUGAUGUUAUUCA [Theo B Ex t3]
apparent KD of MS2 coat protein (input ligand: arginine 13.2 mM): 25.7 nM
apparent KD of MS2 coat protein [1]: 36.7 nM
apparent KD of MS2 coat protein [2]: 22.4 nM

AGAGUUAGACAAAAGUCUAGCUCACCAGAAGGAGCGUCCGAAAGGACAGGUAGGUCGCUGGUACACGAGGAUCACCCGUGUUCCU [ArgAS 16 #OpenEnded #AlternativeMS2]
apparent KD of MS2 coat protein (input ligand: arginine 13.2 mM): 27.6 nM
apparent KD of MS2 coat protein (input ligand: none): 38.6 nM
apparent KD of MS2 coat protein [1]: 40.4 nM
apparent KD of MS2 coat protein [3]: 50.3 nM
apparent KD of MS2 coat protein [2]: 36.8 nM

AGAGUUAGACAAAAGUCUAGCUCACCAGAAGGAGCGUCCGAAAGGACAGGUAGGUCGCUGGUACCUGAGGAUCACCCGGGUUCCU [ArgAS 17 #OpenEnded #AlternativeMS2]
apparent KD of MS2 coat protein (input ligand: arginine 13.2 mM): 134 nM
apparent KD of MS2 coat protein (input ligand: none): 282 nM
apparent KD of MS2 coat protein [1]: 172 nM
apparent KD of MS2 coat protein [3]: 244 nM
apparent KD of MS2 coat protein [2]: 80.5 nM

AGAUCGCUGACCGCGGGAGAUGCGCAGGAUACCAGCCUAAUGUCCGGCCCUUGGCAGCCUGUAACAUGAGGAUCACCCAUGUGAA [theeternabot_exclusion_MS2_Theo_A_29]
apparent KD of MS2 coat protein (input ligand: arginine 13.2 mM): 15 nM
apparent KD of MS2 coat protein [1]: 20.9 nM
apparent KD of MS2 coat protein [2]: 18.1 nM

AGAUCUUUCGAAAGAAGGAUAAUGGCUGAUACCAGAGACGAAAGUCUCCCUUGGCAGCAGUGCCAACAUGAGGAUCACCCAUGUA [Theophylline A 14]
apparent KD of MS2 coat protein (input ligand: arginine 13.2 mM): 110 nM
apparent KD of MS2 coat protein [1]: 164 nM
apparent KD of MS2 coat protein [2]: 178 nM

AGAUCUUUCGAAAGAAGGAUCUUGGCUGAUACCAGAGACGAAAGUCUCCCUUGGCAGCAGUGCCAACAUGAGGAUCACCCAUGUA [Theophylline A 13]
apparent KD of MS2 coat protein (input ligand: arginine 13.2 mM): 35 nM
apparent KD of MS2 coat protein [1]: 49.9 nM
apparent KD of MS2 coat protein [2]: 42.9 nM

AGAUGAGUCACGGCCGCCACUCACUUCAGGUUCACCCUUGGUUAACAUGAGGAUCACCCAUGUGGGAGGACCGGGUGAUGAGCAU [XTryp B #3]
apparent KD of MS2 coat protein (input ligand: arginine 13.2 mM): 11.8 nM
apparent KD of MS2 coat protein [1]: 23.8 nM
apparent KD of MS2 coat protein [3]: 25.3 nM

AGAUGUAGCGGAAGGAGCGACAUGAGGAUCACCCAUGUCUCCCGUUAUGGGAGUUCCUUAGGUCAGGUAGGUCGCCGUUACGUCA [Omei Arg B SS B v1]
apparent KD of MS2 coat protein (input ligand: arginine 13.2 mM): 105 nM
apparent KD of MS2 coat protein (input ligand: none): 146 nM
apparent KD of MS2 coat protein [1]: 143 nM
apparent KD of MS2 coat protein [3]: 226 nM
apparent KD of MS2 coat protein [2]: 105 nM
